Key:
CD86Ig = biological target: T1, CD86Ig (UniProt P42081 24-247); assay: SPR, CD86Ig immobilized, monomeric analytes
T1 construct: extracellular domain; also called soluble CD86Ig; B7-2 Ig
Description: (§1) Association and disassociation analyses were performed using BIA evaluation 2.1 Software (Pharmacia). Association rate constants $kon$ were calculated in two ways, assuming both homogenous single-site interactions and parallel two-site interactions. For single-site interactions, $kon$ values were calculated according to the equation $R_t=Req(1-\exp^{-ks(t-t_0)})$, where R_t is a response at a given time, t; $Req$ is the steady-state response; t_0 is the time at the start of the injection; and $k_s=dR/dt=kon \cdot Ckoff$, and where C is a concentration of analyte, calculated in terms of monomeric binding sites. For two-site interactions $kon$ values were calculated according to the equation $R_t=Req1(1-\exp^{-ks1(t-t_0)})+Req2(1-[…])$. For each model, the values of $kon$ were determined from the calculated slope (to about 70% maximal association) of plots of k_s versus C.

CD80Ig = biological target: T2, CD80Ig (UniProt P33681 35-242); assay: SPR, CD80Ig immobilized, monomeric analytes
T2 construct: extracellular domain; also called soluble CD80Ig; B7-1 Ig
Description: as §1

T1 sequence (P42081 24-247): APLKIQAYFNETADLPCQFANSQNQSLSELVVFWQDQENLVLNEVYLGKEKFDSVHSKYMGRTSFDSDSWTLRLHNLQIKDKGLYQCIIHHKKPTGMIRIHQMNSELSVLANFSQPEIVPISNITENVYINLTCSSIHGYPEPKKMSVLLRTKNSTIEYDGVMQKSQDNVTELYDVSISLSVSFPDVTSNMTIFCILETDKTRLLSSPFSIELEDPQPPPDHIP
T2 sequence (P33681 whole entry, the tested form may be a part): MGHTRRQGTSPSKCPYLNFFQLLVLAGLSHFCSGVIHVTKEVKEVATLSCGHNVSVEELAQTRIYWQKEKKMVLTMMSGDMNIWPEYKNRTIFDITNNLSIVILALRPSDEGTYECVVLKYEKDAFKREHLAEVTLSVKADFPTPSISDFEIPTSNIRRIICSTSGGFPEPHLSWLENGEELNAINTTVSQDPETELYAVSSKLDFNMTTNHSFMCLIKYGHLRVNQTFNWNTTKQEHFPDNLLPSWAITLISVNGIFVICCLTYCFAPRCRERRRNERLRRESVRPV

fold higher affinity than CTLA4X120S (CD86Ig): ~2 fold | fold slower rate of dissociation than CTLA4X120S (CD86Ig): ~3 fold | fold higher affinity than CTLA4X120S (CD80Ig): ~2 fold | fold slower rate of dissociation than CTLA4X120S (CD80Ig): ~3 fold
B1: L104EA29YXC120S (receptor)
chain: MHVAQPAVVLASSRGIASFVCEYASPGKYTEVRVTVLRQADSQVTEVCAATYMMGNELTFLDDSICTGTSSGNQVNLTIQGLRAMDTGLYICKVELMYPPPYYEGIGNGTQIYVIDPEPSPDSD
notes: Monomeric; prepared in an identical manner to CTLA4XC120S; also called single chain L104EA29Y extracellular domain
